The source of these data is paper PMC5567221, “The open architecture of HD-PTP phosphatase provides new insights into the mechanism of regulation of ESCRT function” (Scientific Reports, 2017).

Details in all cases: both partners purified
Experiment [1] addresses T1, HD-PTP Bro1-CC-PRR (residues 1-738) (UniProt Q9H3S7 1-738).
T1 construct: His Domain Protein Tyrosine Phosphatase (HD-PTP), Bro1 and coiled-coil domains plus the proximal region of the PRR (714-738), residues 1-738; cloned into pET28a (NdeI/XhoI); immobilised by the His6 tag on the HTE chip; also called HD-PTP_(Bro1-CC-PRR (+tag)); source: E. coli BL-21(DE3), purified (Nickel beads, MonoQ anion exchange, Superdex200 SEC); not shown: His6, N-terminal, kept
T1 sequence (looked up): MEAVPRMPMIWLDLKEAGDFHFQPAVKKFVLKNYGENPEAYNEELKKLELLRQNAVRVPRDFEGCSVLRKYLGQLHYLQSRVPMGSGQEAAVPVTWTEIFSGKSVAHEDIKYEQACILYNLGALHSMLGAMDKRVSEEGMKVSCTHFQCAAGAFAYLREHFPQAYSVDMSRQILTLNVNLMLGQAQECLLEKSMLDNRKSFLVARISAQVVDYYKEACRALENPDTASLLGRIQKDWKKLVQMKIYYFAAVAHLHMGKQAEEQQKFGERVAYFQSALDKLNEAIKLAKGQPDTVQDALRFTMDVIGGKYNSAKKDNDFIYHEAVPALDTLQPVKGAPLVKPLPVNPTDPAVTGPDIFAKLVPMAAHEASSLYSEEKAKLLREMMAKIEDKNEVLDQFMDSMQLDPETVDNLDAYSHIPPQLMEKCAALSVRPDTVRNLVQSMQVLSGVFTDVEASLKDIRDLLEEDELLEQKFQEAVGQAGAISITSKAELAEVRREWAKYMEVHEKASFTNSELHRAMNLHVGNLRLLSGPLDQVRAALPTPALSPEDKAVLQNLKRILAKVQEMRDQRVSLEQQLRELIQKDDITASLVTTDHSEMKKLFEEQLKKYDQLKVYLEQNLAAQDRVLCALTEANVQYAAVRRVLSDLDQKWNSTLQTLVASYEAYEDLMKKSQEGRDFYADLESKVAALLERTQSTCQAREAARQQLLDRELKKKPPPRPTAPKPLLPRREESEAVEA
Put plainly: SPR; ProteOn XPR36; GST-FL-CHMP4B captured on a GLC chip derivatised with anti-GST antibody (3000-4000 RU); HD-PTP proteins as analytes; equilibrium binding model; 25 °C; 10 mM HEPES pH 7.4, 150 mM NaCl, 0.05% Tween-20. In general terms: In SPR one partner is held on a chip, and binding of the other changes the refractive index at the surface.

In experiment [2] the target is T2, HD-PTP Bro1 domain (residues 1-361) (UniProt Q9H3S7 1-361).
T2 construct: His Domain Protein Tyrosine Phosphatase (HD-PTP), Bro1 domain, residues 1-361; cloned into pNIC-28a-Bsa4; No tag cleavage is described for the His6-tagged proteins; The vector pNIC28-Bsa4 probably adds an N-terminal His6 tag with a TEV site (surmise); also called His Domain Protein Tyrosine Phosphatase Bro1; source: E. coli BL-21(DE3), purified (Nickel beads, MonoQ anion exchange, Superdex200 SEC)
T2 sequence (looked up): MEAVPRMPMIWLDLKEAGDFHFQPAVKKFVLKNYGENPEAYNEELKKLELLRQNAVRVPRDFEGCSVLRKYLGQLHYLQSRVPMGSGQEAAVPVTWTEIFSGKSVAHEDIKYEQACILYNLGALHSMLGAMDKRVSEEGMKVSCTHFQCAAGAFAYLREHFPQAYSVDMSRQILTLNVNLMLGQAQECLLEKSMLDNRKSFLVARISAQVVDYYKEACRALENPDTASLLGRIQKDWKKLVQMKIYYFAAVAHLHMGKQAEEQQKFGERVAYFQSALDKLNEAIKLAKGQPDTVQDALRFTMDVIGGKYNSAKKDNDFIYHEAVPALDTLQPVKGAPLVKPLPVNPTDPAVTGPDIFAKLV
The description is as above.

Experiment [3] addresses T1, HD-PTP Bro1-CC-PRR (residues 1-738). Description: SPR; ProteOn XPR36; His6-tagged HD-PTP Bro1-CC-PRR immobilised on an HTE chip (5000-8000 RU); synthetic peptides as analytes; equilibrium binding model; 25 °C; 10 mM HEPES pH 7.4, 150 mM NaCl, 0.05% Tween-20.

B1: GST-tagged full length CHMP4B (natural protein, UniProt Q9H444 1-224, looked up)
chain: MSVFGKLFGAGGGKAGKGGPTPQEAIQRLRDTEEMLSKKQEFLEKKIEQELTAAKKHGTKNKRAALQALKRKKRYEKQLAQIDGTLSTIEFQREALENANTNTEVLKNMGYAAKAMKAAHDNMDIDKVDELMQDIADQQELAEEISTAISKPVGFGEEFDEDELMAELEELEQEELDKNLLEISGPETVPLPNVPSIALPSKPAKKKEEEDDDMKELENWAGSM
notes: CHMP4B (ESCRT-III subunit), full length; Captured on the chip by an anti-GST antibody; also called FL-CHMP4B; source: E. coli C41, purified (GSTrap FF, glutathione elution)
B1: the Kd (as a rule, the constant that tells how readily two partners part at equilibrium) was 1100 ± 100 nM in experiment [1] and 4.88 ± 0.3 µM in experiment [2].

B2: UBAP1 peptide (residues 261-280) (peptide)
peptide: SNIKSLSFPKLDSDDSNQKT
notes: UBAP1 (ESCRT-I subunit), central region, residues 261-280; also called central region of UBAP1; source: synthetic peptide (Generon Ltd, UK)
In experiment [3], B2 yielded a Kd of 57.5 ± 3.1 µM.

B3: CHMP4B peptide (residues 205-224) (peptide)
peptide: KKKEEEDDDMKELENWAGSM
notes: CHMP4B, C-terminal residues 205-224; also called peptide from the C-terminus of CHMP4B; source: synthetic peptide (Generon Ltd, UK)
Take B3: binding in experiment [3] was characterised by a dissociation constant (Kd) of 30.9 ± 0.2 µM.
